{
  "source": "patent US20060045881A1",
  "about": "“Anti-cancer vaccines” (Board of Regents, The University of Texas System, priority 2004, published 2006)",
  "target": "HLA-A2.1 heavy chain with I125-labeled beta2-microglobulin (heterotrimer complex assay) (human)",
  "assay": "dissociation of I125-labeled beta2-microglobulin from heavy chain/peptide/beta2m complex, HPLC gel filtration",
  "data": [
    {"substance": "HTLV-1 Tax peptide (aa 11-19) (from UniProt P03409 11-19) (peptide; other documents disagree on this pair)", "values": [
      {"measurement": "T1/2 (binding half-life)", "result": 133, "unit": "h"}
    ]}
  ]
}
